{"source": "patent US20160319321", "proteins": {"B1": {"name": "bovine Enterokinase light chain variant (C112A, L134K, I135K) (protein)", "chain": "IVGGSDSREGAWPWVVALYFDDQQVCGASLVSRDWLVSAAHCVYGRNMEPSKWKAVLGLHMASNLTSPQIETRLIDQIVINPHYNKRRKNNDIAMMHLEMKVNYTDYIQPIALPEENQVFPPGRICSIAGWGAKKYQGSTADVLQEADVPLLSNEKCQQQMPEYNITENMVCAGYEAGGVDSCQGDSGGPLMCQENNRWLLAGVTSFGYQCALPNRPGVYARVPRFTEWIQSFLH"}}, "key": {"[1]": {"target": "T1, Lys(Dnp)-DSGDR-HGEGT-Lys(Abz)amide", "T1 chain": "KDSGDRHGEGTK"}, "[2]": {"target": "T2, Lys(Dnp)-DLGDR-HGTFT-Lys(Abz)amide", "T2 chain": "KDLGDRHGTFTK"}, "[3]": {"target": "T3, Lys(Dnp)-DSGDR-HAEGT-Lys(Abz)amide", "T3 chain": "KDSGDRHAEGTK"}, "[4]": {"target": "T4, Lys(Dnp)-EYGDR-EGTFT-Lys(Abz)amide", "T4 chain": "KEYGDREGTFTK"}, "[5]": {"target": "T5, Lys(Dnp)-DSGDR-QGTFT-Lys(Abz)amide", "T5 chain": "KDSGDRQGTFTK"}, "[6]": {"target": "T6, Lys(Dnp)-TDEGDR-HAEGT-Lys(Abz)amide", "T6 chain": "KTDEGDRHAEGTK"}, "[7]": {"target": "T7, Lys(Dnp)-DDGDR-QGTFT-Lys(Abz)amide", "T7 chain": "KDDGDRQGTFTK"}, "[8]": {"target": "T8, Lys(Dnp)-DEGDR-HGTFT-Lys(Abz)amide", "T8 chain": "KDEGDRHGTFTK"}, "[9]": {"target": "T9, Lys(Dnp)-ADEGDR-HAEGT-Lys(Abz)amide", "T9 chain": "KADEGDRHAEGTK"}, "[10]": {"target": "T10, Lys(Dnp)-DEGDR-EGTFT-Lys(Abz)amide", "T10 chain": "KDEGDREGTFTK"}, "[11]": {"target": "T11, Lys(Dnp)-EHGDR-HGEGT-Lys(Abz)amide", "T11 chain": "KEHGDRHGEGTK"}, "[12]": {"target": "T12, Lys(Dnp)-DYGDR-HGEGT-Lys(Abz)amide", "T12 chain": "KDYGDRHGEGTK"}, "[13]": {"target": "T13, DVKPGQELYDDDDK-[Arg34]GLP-1(9-37)", "T13 chain": "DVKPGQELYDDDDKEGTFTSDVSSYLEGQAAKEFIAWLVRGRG"}, "[14]": {"target": "T14, Lys(Dnp)-DDGDR-HGTFT-Lys(Abz)amide", "T14 chain": "KDDGDRHGTFTK"}, "[15]": {"target": "T15, Lys(Dnp)-LDEGDR-HAEGT-Lys(Abz)amide", "T15 chain": "KLDEGDRHAEGTK"}, "[16]": {"target": "T16, Lys(Dnp)-ESGDR-EGTFT-Lys(Abz)amide", "T16 chain": "KESGDREGTFTK"}, "[17]": {"target": "T17, Lys(Dnp)-INDDRHAEGT-Lys(Abz)amide", "T17 chain": "XINDDRHAEGTX"}, "[18]": {"target": "T18, Lys(Dnp)-ESGDR-HGEGT-Lys(Abz)amide", "T18 chain": "KESGDRHGEGTK"}, "[19]": {"target": "T19, Lys(Dnp)-DWGDR-HAEGT-Lys(Abz)amide", "T19 chain": "KDWGDRHAEGTK"}, "[20]": {"target": "T20, Lys(Dnp)-EEGDR-HAEGT-Lys(Abz)amide", "T20 chain": "KEEGDRHAEGTK"}, "[21]": {"target": "T21, Lys(Dnp)-DSGDR-HGTFT-Lys(Abz)amide", "T21 chain": "KDSGDRHGTFTK"}, "[22]": {"target": "T22, Lys(Dnp)-VIGDRHAEGT-Lys(Abz)amide", "T22 chain": "KVIGDRHAEGTK"}, "[23]": {"target": "T23, Lys(Dnp)-LEGDR-HAEGT-Lys(Abz)amide", "T23 chain": "KLEGDRHAEGTK"}, "[24]": {"target": "T24, Lys(Dnp)-DLGDR-HGEGT-Lys(Abz)amide", "T24 chain": "KDLGDRHGEGTK"}, "[25]": {"target": "T25, Lys(Dnp)-HEGDR-HAEGT-Lys(Abz)amide", "T25 chain": "KHEGDRHAEGTK"}, "[26]": {"target": "T26, DVKPGQPEYDDDDK-[Arg34]GLP-1(9-37)", "T26 chain": "T13 chain with E7P, L8E"}, "[27]": {"target": "T27, Lys(Dnp)-DFGDR-EGTFT-Lys(Abz)amide", "T27 chain": "KDFGDREGTFTK"}, "[28]": {"target": "T28, Lys(Dnp)-DFGDR-HGEGT-Lys(Abz)amide", "T28 chain": "KDFGDRHGEGTK"}, "[29]": {"target": "T29, Lys(Dnp)-ESGDR-HAEGT-Lys(Abz)amide", "T29 chain": "KESGDRHAEGTK"}, "[30]": {"target": "T30, Lys(Dnp)-SSGDRHAEGT-Lys(Abz)amide", "T30 chain": "KSSGDRHAEGTK"}, "[31]": {"target": "T31, Lys(Dnp)-EDGDR-HAEGT-Lys(Abz)amide", "T31 chain": "KEDGDRHAEGTK"}, "[32]": {"target": "T32, Lys(Dnp)-DDGDR-HAEGT-Lys(Abz)amide", "T32 chain": "KDDGDRHAEGTK"}, "[33]": {"target": "T33, Lys(Dnp)-SDEGDR-HAEGT-Lys(Abz)amide", "T33 chain": "KSDEGDRHAEGTK"}, "[34]": {"target": "T34, Lys(Dnp)-DDEGDR-HAEGT-Lys(Abz)amide", "T34 chain": "KDDEGDRHAEGTK"}, "[35]": {"target": "T35, Lys(Dnp)-EDGDR-EGTFT-Lys(Abz)amide", "T35 chain": "KEDGDREGTFTK"}, "[36]": {"target": "T36, Lys(Dnp)-DFGDR-HAEGT-Lys(Abz)amide", "T36 chain": "KDFGDRHAEGTK"}, "[37]": {"target": "T37, DVKPGQPLYDDDDK-[Arg34]GLP-1(9-37)", "T37 chain": "T13 chain with E7P"}, "[38]": {"target": "T38, Lys(Dnp)-EDEGDR-HAEGT-Lys(Abz)amide", "T38 chain": "KEDEGDRHAEGTK"}, "[39]": {"target": "T39, Lys(Dnp)-EYGDR-HAEGT-Lys(Abz)amide", "T39 chain": "KEYGDRHAEGTK"}, "[40]": {"target": "T40, Lys(Dnp)-DHGDR-HAEGT-Lys(Abz)amide", "T40 chain": "KDHGDRHAEGTK"}, "[41]": {"target": "T41, Lys(Dnp)-DLGDR-HAEGT-Lys(Abz)amide", "T41 chain": "KDLGDRHAEGTK"}, "[42]": {"target": "T42, Lys(Dnp)-QEGDR-HAEGT-Lys(Abz)amide", "T42 chain": "KQEGDRHAEGTK"}}, "note": "Substitutions are numbered along the chain they refer to. In names and notes the source's numbering stands. Several values for one entry are separate records, joined by “and”; a condition that tells them apart may be missing. Equal entries are not always repeated.", "data": [{"protein": "B1", "values": [{"measurement": "Activity (%)", "setting": "[1]", "value": 282, "unit": "%"}, {"measurement": "Activity (%)", "setting": "[2]", "value": 216, "unit": "%"}, {"measurement": "Activity (%)", "setting": "[3]", "value": "504% and 380%"}, {"measurement": "Activity (%)", "setting": "[4]", "value": 353, "unit": "%"}, {"measurement": "Activity (%)", "setting": "[5]", "value": 125, "unit": "%"}, {"measurement": "Activity (%)", "setting": "[6]", "value": 237, "unit": "%"}, {"measurement": "Activity (%)", "setting": "[7]", "value": 338, "unit": "%"}, {"measurement": "Activity (%)", "setting": "[8]", "value": 392, "unit": "%"}, {"measurement": "Activity (%)", "setting": "[9]", "value": 100, "unit": "%"}, {"measurement": "Activity (%)", "setting": "[10]", "value": 890, "unit": "%"}, {"measurement": "Activity (%)", "setting": "[11]", "value": 491, "unit": "%"}, {"measurement": "Activity (%)", "setting": "[12]", "value": 469, "unit": "%"}, {"measurement": "Activity (%)", "setting": "[13]", "value": 168, "unit": "%"}, {"measurement": "Activity (%)", "setting": "[14]", "value": 402, "unit": "%"}, {"measurement": "Activity (%)", "setting": "[15]", "value": 259, "unit": "%"}, {"measurement": "Activity (%)", "setting": "[16]", "value": 362, "unit": "%"}, {"measurement": "Activity (%)", "setting": "[17]", "value": 126, "unit": "%"}, {"measurement": "Activity (%)", "setting": "[18]", "value": 221, "unit": "%"}, {"measurement": "Activity (%)", "setting": "[19]", "value": 513, "unit": "%"}, {"measurement": "Activity (%)", "setting": "[20]", "value": 988, "unit": "%"}, {"measurement": "Activity (%)", "setting": "[21]", "value": 172, "unit": "%"}, {"measurement": "Activity (%)", "setting": "[22]", "value": 68, "unit": "%"}, {"measurement": "Activity (%)", "setting": "[23]", "value": 398, "unit": "%"}, {"measurement": "Activity (%)", "setting": "[24]", "value": 438, "unit": "%"}, {"measurement": "Activity (%)", "setting": "[25]", "value": 468, "unit": "%"}, {"measurement": "Activity (%)", "setting": "[26]", "value": 158, "unit": "%"}, {"measurement": "Activity (%)", "setting": "[27]", "value": 419, "unit": "%"}, {"measurement": "Activity (%)", "setting": "[28]", "value": 253, "unit": "%"}, {"measurement": "Activity (%)", "setting": "[29]", "value": 557, "unit": "%"}, {"measurement": "Activity (%)", "setting": "[30]", "value": 191, "unit": "%"}, {"measurement": "Activity (%)", "setting": "[31]", "value": 632, "unit": "%"}, {"measurement": "Activity (%)", "setting": "[32]", "value": "604% and 601%"}, {"measurement": "Activity (%)", "setting": "[33]", "value": 222, "unit": "%"}, {"measurement": "Activity (%)", "setting": "[34]", "value": 113, "unit": "%"}, {"measurement": "Activity (%)", "setting": "[35]", "value": 505, "unit": "%"}, {"measurement": "Activity (%)", "setting": "[36]", "value": 550, "unit": "%"}, {"measurement": "Activity (%)", "setting": "[37]", "value": 136, "unit": "%"}, {"measurement": "Activity (%)", "setting": "[38]", "value": 159, "unit": "%"}, {"measurement": "Activity (%)", "setting": "[39]", "value": 539, "unit": "%"}, {"measurement": "Activity (%)", "setting": "[40]", "value": 545, "unit": "%"}, {"measurement": "Activity (%)", "setting": "[41]", "value": "795% and 722%"}, {"measurement": "Activity (%)", "setting": "[42]", "value": 551, "unit": "%"}]}]}
